Measured values from article PMC4525382, “Functional characterization and expression analysis of rice δ^1-pyrroline-5-carboxylate dehydrogenase provide new insight into the regulation of proline and arginine catabolism” (Frontiers in Plant Science, 2015).
One block for each molecule: values may come before it.

Assays:
[1] = target: T1, rice P5C dehydrogenase (OsP5CDH) (Oryza sativa, UniProt B9FLB9); test: NAD(P)H absorbance at […] nm, non-linear regression; format: biochemical
T1 construct: gene Os05g0536400; mature form lacking the 16-residue predicted mitochondrial transit peptide; N-terminal His6 tag (pET151, TEV-cleavable; tag without effect); E. coli BL21(DE3) pLysS; monomer 57,670 Da; homotetramer 259 kDa
T1 sequence (B9FLB9 17-550): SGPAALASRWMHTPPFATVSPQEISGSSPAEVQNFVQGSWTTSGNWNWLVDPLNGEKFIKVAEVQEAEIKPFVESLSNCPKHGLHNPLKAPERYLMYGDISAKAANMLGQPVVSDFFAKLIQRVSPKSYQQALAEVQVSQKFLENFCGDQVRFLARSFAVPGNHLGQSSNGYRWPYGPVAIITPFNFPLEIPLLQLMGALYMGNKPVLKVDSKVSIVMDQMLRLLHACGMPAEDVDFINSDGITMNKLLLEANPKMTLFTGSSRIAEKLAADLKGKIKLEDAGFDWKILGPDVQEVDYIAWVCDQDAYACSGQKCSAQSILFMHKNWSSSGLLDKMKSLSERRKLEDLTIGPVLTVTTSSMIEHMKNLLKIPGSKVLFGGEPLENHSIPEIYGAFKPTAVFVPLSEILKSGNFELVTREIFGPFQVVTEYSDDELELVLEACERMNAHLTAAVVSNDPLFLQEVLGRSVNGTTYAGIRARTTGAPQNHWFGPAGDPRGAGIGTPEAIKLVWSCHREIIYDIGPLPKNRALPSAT

[2] = target: T1, rice P5C dehydrogenase (OsP5CDH); test: NAD(P)H absorbance at […] nm, kinetic analysis; format: biochemical
[3] = target: rice P5C dehydrogenase, truncated version lacking the predicted mitochondrial transit peptide (Oryza sativa (rice)); test: SEC; gel permeation on Superose 12 HR 10/30; 100 uL of purified protein at 0.5 mg/mL; 50 mM Tris-HCl pH 7.75, 250 mM NaCl (same pattern from 250 mM to 1 M NaCl); column calibrated with mass markers; six runs
[4] = substrate: NC(=O)c1ccc[n+]([C@@H]2O[C@H](COP(=O)(O)OP(=O)(O)OC[C@H]3O[C@@H](n4cnc5c(N)ncnc54)[C@H](OP(=O)(O)O)[C@@H]3O)[C@@H](O)[C@H]2O)c1; test: purified protein; format: biochemical, Oryza sativa; conditions: 1 mM L-P5C, 50 mM Hepes-KOH pH 7.5, 35 °C, varied: cofactor
[5] = substrate: NC(=O)c1ccc[n+]([C@@H]2O[C@H](COP(=O)(O)OP(=O)(O)OC[C@H]3O[C@@H](n4cnc5c(N)ncnc54)[C@H](O)[C@@H]3O)[C@@H](O)[C@H]2O)c1; test: purified protein; format: biochemical, Oryza sativa; conditions: 1 mM L-P5C, 50 mM Hepes-KOH pH 7.5, 35 °C, varied: cofactor
[6] = substrate: O=C(O)[C@@H]1CCC=N1; test: purified protein; format: biochemical, Oryza sativa; conditions: 10 mM NAD+ co-substrate, 50 mM Hepes-KOH pH 7.5, 35 °C

Molecule: N=C(N)NCCC[C@H](N)C(=O)O [arginine]
IC50 [1]: 87 ± 11 mM
Ki [2]: 62.3 ± 2.4 mM

stoichiometry N [3]: 4
Molecule: rice P5C dehydrogenase, truncated version lacking the predicted mitochondrial transit peptide (enzyme)

B1: rice P5C dehydrogenase (OsP5CDH) (Oryza sativa Japonica Group) (protein)
chain: T1 sequence (B9FLB9 17-550)
notes: mature form lacking the 16-residue predicted mitochondrial transit peptide; N-terminal His6 tag (pET151, TEV-cleavable; tag without effect); E. coli BL21(DE3) pLysS; monomer 57,670 Da; homotetramer 259 kDa
Km [4]: 4695 ± 462 µM
Vmax [4]: 49.2 ± 1.7 nkat (mg protein)^−1
kcat [4]: 3 s⁻¹
Km [5]: 644 ± 30 µM
Vmax [5]: 196.9 ± 2.1 nkat (mg protein)^−1
kcat [5]: 12 s⁻¹
Km [6]: 358 ± 14 µM
